Reference: patent US20140259226

How the values were obtained:
6X His-PYR1 A89W = target: T1, 6X His-PYR1 A89W
T1 chain: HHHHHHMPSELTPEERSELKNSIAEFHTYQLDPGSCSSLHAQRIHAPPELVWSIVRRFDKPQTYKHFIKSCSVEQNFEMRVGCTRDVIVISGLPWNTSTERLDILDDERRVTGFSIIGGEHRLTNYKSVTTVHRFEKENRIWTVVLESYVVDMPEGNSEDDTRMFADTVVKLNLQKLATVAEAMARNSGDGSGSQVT

6X His-PYR1 F159V = target: T2, 6X His-PYR1 F159V
T2 chain: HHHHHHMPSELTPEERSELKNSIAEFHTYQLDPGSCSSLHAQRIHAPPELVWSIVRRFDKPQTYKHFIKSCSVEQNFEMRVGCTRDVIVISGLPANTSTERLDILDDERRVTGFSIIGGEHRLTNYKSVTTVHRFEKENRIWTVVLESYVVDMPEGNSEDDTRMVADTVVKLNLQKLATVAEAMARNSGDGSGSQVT

6X His-PYR1 H60P = target: T3, 6X His-PYR1 H60P
T3 chain: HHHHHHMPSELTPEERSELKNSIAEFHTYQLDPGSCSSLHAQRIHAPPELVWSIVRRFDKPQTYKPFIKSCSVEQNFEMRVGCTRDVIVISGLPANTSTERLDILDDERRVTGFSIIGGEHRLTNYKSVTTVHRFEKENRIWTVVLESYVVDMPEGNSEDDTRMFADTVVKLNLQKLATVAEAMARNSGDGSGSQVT

6X His-PYR1 I84Q = target: T4, 6X His-PYR1 I84Q
T4 chain: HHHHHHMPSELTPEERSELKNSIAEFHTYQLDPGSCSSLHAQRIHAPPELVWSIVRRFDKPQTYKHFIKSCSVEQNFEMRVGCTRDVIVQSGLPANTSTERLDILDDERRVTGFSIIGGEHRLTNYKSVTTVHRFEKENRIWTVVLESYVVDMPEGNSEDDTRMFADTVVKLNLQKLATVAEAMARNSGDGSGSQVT

6X His-PYR1 K170W = target: T5, 6X His-PYR1 K170W
T5 chain: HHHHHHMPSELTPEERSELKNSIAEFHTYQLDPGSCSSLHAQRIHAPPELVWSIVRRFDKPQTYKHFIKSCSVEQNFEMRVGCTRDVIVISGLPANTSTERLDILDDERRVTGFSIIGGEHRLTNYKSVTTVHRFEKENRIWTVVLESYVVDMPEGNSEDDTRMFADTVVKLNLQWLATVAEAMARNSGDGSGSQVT

6X His-PYR1 M158I = target: T6, 6X His-PYR1 M158I
T6 chain: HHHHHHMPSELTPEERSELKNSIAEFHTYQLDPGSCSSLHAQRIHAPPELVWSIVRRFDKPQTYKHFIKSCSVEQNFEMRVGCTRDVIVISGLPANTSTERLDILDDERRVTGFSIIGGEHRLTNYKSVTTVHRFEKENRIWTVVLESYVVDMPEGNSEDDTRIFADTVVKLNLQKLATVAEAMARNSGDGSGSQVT

6X His-PYR1 T162F = target: T7, 6X His-PYR1 T162F
T7 chain: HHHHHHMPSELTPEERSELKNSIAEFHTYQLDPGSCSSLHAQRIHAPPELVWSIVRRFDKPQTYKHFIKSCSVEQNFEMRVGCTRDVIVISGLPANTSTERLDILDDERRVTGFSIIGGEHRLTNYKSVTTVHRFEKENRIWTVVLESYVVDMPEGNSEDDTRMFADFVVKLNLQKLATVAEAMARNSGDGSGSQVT

6X His-PYR1 V83F = target: T8, 6X His-PYR1 V83F
T8 chain: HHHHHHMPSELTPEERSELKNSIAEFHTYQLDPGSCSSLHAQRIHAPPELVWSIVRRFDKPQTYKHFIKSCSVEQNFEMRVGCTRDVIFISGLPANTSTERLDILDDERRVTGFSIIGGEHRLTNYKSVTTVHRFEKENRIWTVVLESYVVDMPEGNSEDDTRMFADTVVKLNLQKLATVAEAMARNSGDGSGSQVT

6x-His-PYL10, wild type = target: T9, 6x-His-PYL10, wild type
T9 chain: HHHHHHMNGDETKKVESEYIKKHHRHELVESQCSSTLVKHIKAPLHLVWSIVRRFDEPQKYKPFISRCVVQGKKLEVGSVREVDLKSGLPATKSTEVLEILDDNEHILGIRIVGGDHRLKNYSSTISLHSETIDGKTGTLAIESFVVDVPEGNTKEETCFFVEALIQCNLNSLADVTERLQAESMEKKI

6x-His-PYL6, wild type = target: T10, 6x-His-PYL6, wild type
T10 chain: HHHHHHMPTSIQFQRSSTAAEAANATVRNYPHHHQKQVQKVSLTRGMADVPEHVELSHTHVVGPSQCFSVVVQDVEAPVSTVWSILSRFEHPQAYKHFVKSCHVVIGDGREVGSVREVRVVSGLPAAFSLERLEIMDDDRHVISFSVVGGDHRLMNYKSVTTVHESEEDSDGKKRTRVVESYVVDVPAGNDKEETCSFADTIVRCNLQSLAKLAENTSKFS

[1] = target: T11, PYL2^CA4C (H65P, A93W, M164I, F165V), 6xHis fusion
T11 chain: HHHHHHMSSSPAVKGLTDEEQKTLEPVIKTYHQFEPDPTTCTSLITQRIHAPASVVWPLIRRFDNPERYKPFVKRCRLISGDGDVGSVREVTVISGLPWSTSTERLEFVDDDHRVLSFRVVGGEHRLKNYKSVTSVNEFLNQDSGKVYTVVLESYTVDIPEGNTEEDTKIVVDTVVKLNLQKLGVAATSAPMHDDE

[2] = target: T12, PYL9^CA4C (A91W, Y160I, F161V), 6xHis fusion
T12 chain: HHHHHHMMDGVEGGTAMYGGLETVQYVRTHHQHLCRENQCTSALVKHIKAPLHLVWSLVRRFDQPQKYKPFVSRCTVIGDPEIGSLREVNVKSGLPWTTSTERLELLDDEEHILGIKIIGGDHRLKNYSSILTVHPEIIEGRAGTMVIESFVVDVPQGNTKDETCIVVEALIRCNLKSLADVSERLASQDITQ

[3] = target: T13, PYR1^CA3 (H60P, V83F, F159V), 6xHis fusion
T13 chain: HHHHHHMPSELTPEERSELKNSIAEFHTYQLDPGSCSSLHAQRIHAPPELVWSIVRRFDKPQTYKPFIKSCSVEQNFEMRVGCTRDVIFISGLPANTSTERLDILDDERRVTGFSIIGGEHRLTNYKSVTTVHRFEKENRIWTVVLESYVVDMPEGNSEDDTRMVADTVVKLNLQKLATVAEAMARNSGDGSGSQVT

[4] = target: T14, PYR1^CA4 (H60P, V83F, F159V, M158I), 6xHis fusion
T14 chain: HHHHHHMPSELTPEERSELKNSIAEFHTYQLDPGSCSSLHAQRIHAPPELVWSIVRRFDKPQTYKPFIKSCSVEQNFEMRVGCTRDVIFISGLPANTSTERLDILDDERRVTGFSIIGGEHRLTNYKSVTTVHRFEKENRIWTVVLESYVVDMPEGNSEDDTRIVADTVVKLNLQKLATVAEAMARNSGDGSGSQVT

[5] = target: T15, PYR1^CA4B (V83F, M158I, F159V, K170W), 6xHis fusion
T15 chain: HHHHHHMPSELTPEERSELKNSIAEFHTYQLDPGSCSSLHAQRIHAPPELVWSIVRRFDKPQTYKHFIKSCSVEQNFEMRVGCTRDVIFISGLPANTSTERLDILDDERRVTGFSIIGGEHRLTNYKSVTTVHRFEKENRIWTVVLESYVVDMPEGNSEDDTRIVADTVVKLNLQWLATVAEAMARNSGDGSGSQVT

[6] = target: T16, PYR1^CA4C (H60P, A89W, M158I, F159V), 6xHis fusion
T16 chain: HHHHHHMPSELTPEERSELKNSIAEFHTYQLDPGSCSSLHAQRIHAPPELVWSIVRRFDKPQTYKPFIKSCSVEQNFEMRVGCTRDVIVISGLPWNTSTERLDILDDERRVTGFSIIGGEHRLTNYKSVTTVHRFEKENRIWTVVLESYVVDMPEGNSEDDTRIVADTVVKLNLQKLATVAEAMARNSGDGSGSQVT

B1: GST-HAB1 (protein)
chain: SPVEITQLKNVTDAADLLSDSENQSFCNGGTECTMEDVSELEEVGEQDLLKTLSDTRSGSSNVFDEDDVLSVVEDNSAVISEGLLVVDAGSELSLSNTAMEIDNGRVLATAIIVGESSIEQVPTAEVLIAGVNQDTNTSEVVIRLPDENSNHLVKGRSVYELDCIPLWGTVSIQGNRSEMEDAFAVSPHFLKLPIKMLMGDHEGMSPSLTHLTGHFFGVYDGHGGHKVADYCRDRLHFALAEEIERIKDELCKRNTGEGRQVQWDKVFTSCFLTVDGEIEGKIGRAVVGSSDKVLEAVASETVGSTAVVALVCSSHIVVSNCGDSRAVLFRGKEAMPLSVDHKPDREDEYARIENAGGKVIQWQGARVFGVLAMSRSIGDRYLKPYVIPEPEVTFMPRSREDECLILASDGLWDVMNNQEVCEIARRRILMWHKKNGAPPLAERGKGIDPACQAAADYLSMLALQKGSKDNISIIVIDLKAQRKFKTRT
HAB1 phosphatase (PP2C) activity, % of control, pNPP hydrolysis, in the absence of ABA (6X His-PYR1 A89W): each of the activating mutants increased basal receptor activity in comparison to wild-type PYR1 | HAB1 phosphatase (PP2C) activity, % of control, pNPP hydrolysis, in the absence of ABA (6X His-PYR1 F159V): each of the activating mutants increased basal receptor activity in comparison to wild-type PYR1 | HAB1 phosphatase (PP2C) activity, % of control, pNPP hydrolysis, in the absence of ABA (6X His-PYR1 H60P): each of the activating mutants increased basal receptor activity in comparison to wild-type PYR1 | HAB1 phosphatase (PP2C) activity, % of control, pNPP hydrolysis, in the absence of ABA (6X His-PYR1 I84Q): each of the activating mutants increased basal receptor activity in comparison to wild-type PYR1 | HAB1 phosphatase (PP2C) activity, % of control, pNPP hydrolysis, in the absence of ABA (6X His-PYR1 K170W): each of the activating mutants increased basal receptor activity in comparison to wild-type PYR1 | HAB1 phosphatase (PP2C) activity, % of control, pNPP hydrolysis, in the absence of ABA (6X His-PYR1 M158I): each of the activating mutants increased basal receptor activity in comparison to wild-type PYR1 | HAB1 phosphatase (PP2C) activity, % of control, pNPP hydrolysis, in the absence of ABA (6X His-PYR1 T162F): each of the activating mutants increased basal receptor activity in comparison to wild-type PYR1 | HAB1 phosphatase (PP2C) activity, % of control, pNPP hydrolysis, in the absence of ABA (6X His-PYR1 V83F): each of the activating mutants increased basal receptor activity in comparison to wild-type PYR1 | PP2C activity, % of control, pNPP hydrolysis, with 0 or 10 µM ABA (6x-His-PYL10, wild type): PYL6 and PYL10, which have high basal activities ..., are not full CA receptors | PP2C activity, % of control, pNPP hydrolysis, with 0 or 10 µM ABA (6x-His-PYL6, wild type): PYL6 and PYL10, which have high basal activities ..., are not full CA receptors | PP2C activity, % of control, pNPP hydrolysis, in the absence of ABA [1]: the mutant proteins were highly activated in the absence of ABA in comparison to wild-type PYL2 or PYL9 | PP2C activity, % of control, pNPP hydrolysis, in the absence of ABA [2]: the mutant proteins were highly activated in the absence of ABA in comparison to wild-type PYL2 or PYL9 | PP2C activity, % of control, pNPP hydrolysis, in the absence of ABA [3]: both the triple and quadruple mutants dramatically increased basal PYR1 activity relative to wild-type PYR1 | PP2C activity, % of control, pNPP hydrolysis, in the absence of ABA [4]: both the triple and quadruple mutants dramatically increased basal PYR1 activity relative to wild-type PYR1 | PP2C activity, % of control, pNPP hydrolysis, in the absence of ABA [5]: both the PYR1^CA4B and PYR1^CAc mutants dramatically increased basal PYR1 activity relative to wild-type PYR1 | PP2C activity, % of control, pNPP hydrolysis, in the absence of ABA [6]: both the PYR1^CA4B and PYR1^CAc mutants dramatically increased basal PYR1 activity relative to wild-type PYR1
